Test results as given in publication PMC12321133, “scFv intrabody targeting wildtype TDP-43 presents protective effects in a cellular model of TDP-43 proteinopathy” (PLOS One, 2025).

Molecular target: T1, commercial recombinant human full-length wtTDP-43 (Abcam, ab224788) (human, UniProt Q13148 1-414)
T1 construct: TDP-43 (TARDBP), human, wild type, recombinant full length; also called recombinant wtTDP-43; source: bought: Abcam, ab224788
Assay: ELISA; indirect ELISA: wells coated overnight at 4 °C with commercial human wtTDP-43 at 1 µg/mL in PBS; purified scFv at 1, 5 or 10 µg/mL, 1 h at RT; detected with HRP-conjugated anti-6xHis antibody, absorbance at 450 nm
Conditions: both partners purified

T1 sequence (Q13148 whole entry): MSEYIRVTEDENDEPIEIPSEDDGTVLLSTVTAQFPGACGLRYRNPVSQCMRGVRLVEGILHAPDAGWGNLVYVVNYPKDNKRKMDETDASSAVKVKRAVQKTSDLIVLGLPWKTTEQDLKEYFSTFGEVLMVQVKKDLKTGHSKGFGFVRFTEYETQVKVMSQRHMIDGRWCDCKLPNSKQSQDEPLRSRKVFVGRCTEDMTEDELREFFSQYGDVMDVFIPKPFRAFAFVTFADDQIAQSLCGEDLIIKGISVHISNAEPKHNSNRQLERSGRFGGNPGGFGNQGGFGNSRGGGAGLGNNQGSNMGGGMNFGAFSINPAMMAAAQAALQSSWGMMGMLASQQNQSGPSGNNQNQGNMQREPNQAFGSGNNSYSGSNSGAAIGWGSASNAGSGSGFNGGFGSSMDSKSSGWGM

fold increase of the ELISA signal over the control scFv 13R4 at 5 µg/mL | fold increase of the ELISA signal over the control scFv 13R4 at 10 µg/mL | Binder
5 fold | 3 fold | scFv B1, purified (c-myc and 6xHis tags) (scFv, VH of scFv B1 as printed; linker of the HuscI library between VH and VL; VL of scFv B1; Selected from the human synthetic HuscI library; The scFv was moved as an NcoI-NotI fragment from pHEN-HuscI into pET-23NN, which adds c-myc and 6xHis at the 3' end; source: E. coli BL21(DE3)pLysS, pET-23NN vector, purified (Ni-NTA, dialysed in MilliQ water); not shown: c-myc, C-terminal, kept; His6, …) scFv: MAEVQLVESGGSLVKPGGSLRLSCAASGFTFSNYDMNWVRQAPGKGLEWISDIDGSSRNIYYADFVKGRFTISRDNATNSLYLQMNSLRAEDTAVYYCVRSSYYDNGMDVWGRGTLVTVSSGGGGSGGGGSGGGGSQSVLTQPASVSGSPGQSITISCAGTSSDVGGYDGVSWYQQHPGKAPKLMIYYDSYRPSGVSNRFSGSKSGNTASLTISGLQAEDEADYYCSSYTYYSTRVFGGGTKLAVLG
2 fold | 2 fold | scFv D7, purified (c-myc and 6xHis tags) (scFv, VH of scFv D7 as printed; linker of the HuscI library between VH and VL; VL of scFv D7; Selected from the human synthetic HuscI library; The scFv was moved as an NcoI-NotI fragment from pHEN-HuscI into pET-23NN, which adds c-myc and 6xHis at the 3' end; source: E. coli BL21(DE3)pLysS, pET-23NN vector, purified (Ni-NTA, dialysed in MilliQ water); not shown: c-myc, C-terminal, kept; His6, …) scFv: MAEVQLVESGGSLVKPGGSLRLSCAASGFTFSNYYMNWVRQAPGKGLEWISDIYGSSRYISYADFVKGRFTISRDNATNSLYLQMNSLRAEDTAVYYCVRSSSNDGGGMDVWGRGTLVTVSSGGGGSGGGGSGGGGSQSVLTQPASVSGSPGQSITISCAGTSSDVGGNNYVSWYQQHPGKAPKLMIYYDSYRPSGVSNRFSGSKSGNTASLTISGLQAEDEADYYCSSYTYSSTRVFGGGTKLAVLG
